Where two headings read alike, the source gives them in different places.
Columns and labels:
Test in all cases: fluorescence anisotropy
[1] = target: T1, CPSF30-5F (five CCCH domains) (Bos taurus, UniProt O19137 33-170)
[2] = target: T1, CPSF30-5F (five CCCH domains); remark: listed apart in the source
[3] = target: T1, CPSF30-5F (five CCCH domains); remark: listed apart in the source
[4] = target: T1, CPSF30-5F (five CCCH domains); remark: listed apart in the source
[5] = target: T1, CPSF30-5F (five CCCH domains); remark: listed apart in the source
[6] = target: T1, CPSF30-5F (five CCCH domains); remark: listed apart in the source
[7] = target: T1, CPSF30-5F (five CCCH domains); remark: listed apart in the source
[8] = target: T1, CPSF30-5F (five CCCH domains); remark: listed apart in the source
[9] = target: CPSF30-FL (five CCCH + CCHC zinc knuckle) (Bos taurus, UniProt O19137 1-243)
Chain of CPSF30-FL (five CCCH + CCHC zinc knuckle) (O19137 whole entry, the tested form may be a part): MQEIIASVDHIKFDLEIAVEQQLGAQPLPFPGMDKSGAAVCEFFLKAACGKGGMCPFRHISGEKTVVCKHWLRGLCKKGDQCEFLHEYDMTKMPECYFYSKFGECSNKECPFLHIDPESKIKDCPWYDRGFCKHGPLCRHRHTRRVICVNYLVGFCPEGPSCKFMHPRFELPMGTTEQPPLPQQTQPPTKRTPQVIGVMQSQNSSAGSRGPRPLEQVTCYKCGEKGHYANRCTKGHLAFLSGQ

[10] = target: T1, CPSF30-5F (five CCCH domains); remark: listed apart in the source
[11] = target: T1, CPSF30-5F (five CCCH domains); remark: listed apart in the source

T1 sequence (O19137 33-170): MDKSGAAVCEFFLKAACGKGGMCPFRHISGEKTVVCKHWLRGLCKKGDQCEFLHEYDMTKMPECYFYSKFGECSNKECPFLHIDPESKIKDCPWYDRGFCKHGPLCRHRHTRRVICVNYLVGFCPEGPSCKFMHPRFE

Binder: UCUCACUUUAAUAACAAAAAUCAUGCUUAU (ssRNA) [BTHA (β-thalassemia)]
- apparent K (half saturation) [1]: 148 ± 9 nM

Binder: UCUCACUUUUCGAAUAAAUCGCAUGCUUAU (ssRNA) [Least freq fl (UCG flanks)]
- apparent K (half saturation) [2]: 309 ± 25 nM

Binder: UUAUUAUUUAUUUAUUUA (ssRNA) [ARE-18]
- apparent K (half saturation) [1]: 671 ± 49 nM

Binder: UCUCACUUUAAUAUUAAGAAUCAUGCUUAU (ssRNA) [FABRY]
- binding result [3]: no binding

Binder: AUUAUUUAUUUAUUUA (ssRNA) [ARE-16]
- apparent K (half saturation) [4]: 1000 ± 82 nM

Binder: UCUCACUUUAAUAAUCAAAAUCAUGCUUAU (ssRNA) [P4AtoC]
- apparent K (half saturation) [5]: 335 ± 38 nM

Binder: UCUCACUUUAAUAAUACAAAUCAUGCUUAU (ssRNA) [P5AtoC]
- apparent K (half saturation) [6]: 278 ± 29 nM

Binder: AUUUAUUUAUUAUUUAUUUAUUUA (ssRNA) [ARE-24]
- apparent K (half saturation) [7]: 265 ± 31 nM

Binder: GUGAUUAUUUAUUAUUUAUUUAUUAUUUAUUUAUUUAG (ssRNA) [ARE-38]
- apparent K (half saturation) [8]: 141 ± 5 nM

Binder: UUUAUUAUUUAUUUAUUUAG (ssRNA) [ARE-20]
- apparent K (half saturation) [1]: 499 ± 37 nM

Binder: CACUUUAAUAAUAAAAAUCAUGCU (ssRNA) [α-syn24 (labeled)]
- binding result [9]: binds

Binder: UCUCACUUUAAUAAUGAAAAUCAUGCUUAU (ssRNA) [IPEX]
- binding result [3]: no binding

Binder: UCUCACUUUAAUAGUAAAAAUCAUGCUUAU (ssRNA) [P2AtoG]
- apparent K (half saturation) [5]: 376 ± 12 nM

Binder: UCUCACUUUAAUAUUAAAAAUCAUGCUUAU (ssRNA) [P2AtoU]
- apparent K (half saturation) [6]: 207 ± 0.6 nM

Binder: UCUCACUUUAAUAAUAGAAAUCAUGCUUAU (ssRNA) [LUPUS]
- binding result [3]: no binding

Binder: UCUCACUUUAAUAAUAAGAAUCAUGCUUAU (ssRNA) [ATHA (α-thalassemia)]
- apparent K (half saturation) [10]: 135 ± 6.3 nM

Binder: UCUCACUUUAAAAAUAAAAAACAUGCUUAU (ssRNA) [Most freq fl (AAA flanks)]
- apparent K (half saturation) [10]: 226 ± 1.6 nM

Binder: UUUAUUAUUUAUUUAUUAUUUAUUUAUUUA (ssRNA) [ARE-30]
- apparent K (half saturation) [11]: 163 ± 10 nM

Binder: UCUCACUUUAAUAAUAACAAUCAUGCUUAU (ssRNA) [P6AtoC]
- apparent K (half saturation) [5]: 309 ± 26 nM

Reference: publication PMC8575367
